Assay: amylase study: sensory rating of vanilla custard desserts with added amylase
Assay type: in vivo, human
Protocol: The role of salivary amylase in modifying texture sensations was evaluated in the following examples, in which the level of amylase activity was varied within subjects, rather than between subjects. Alpha-amylase was added in varying concentrations to starch and CMC (non-starch)-based vanilla custard desserts. Additionally, amylase activity was inhibited to various degrees by adding the pharmaceutical amylase inhibitor Acarbose (CAS nr. 56180-94-0) in various concentrations to the same test foods.
Eighteen subjects, 11 females and 7 males aged between 18 and 34 yrs, participated the ‘amylase study’ and 7 different subjects, all females aged between 39 and 56 yrs, participated in the ‘acarbose study’. The subjects participating in the latter study had been informed about acarbose and its possibly side effects if swallowed. To avoid these side effects, subjects expectorated rather than swallowed the acarbose samples. All subjects signed consent forms expressing their willingness to participate in the studies, and all had previously been screened for olfactory and taste disorders and had received extensive training in the description of sensory mouthfeel and afterfeel attributes for semi-solid foods. Testing took place at the sensory facilities of TNO-Nutrition and Food Research in Zeist, The Netherlands.
For the ‘amylase study’, two commercially available full-fat vanilla custard desserts (3 wt % fat AH vanille vla or “AH”, Albert Heijn Corp., Zaandam, The Netherlands; and 3 wt % fat Boerenland via or “BL”, Campina Corp., Woerden, The Netherlands) were used as the two starch-based vanilla custard desserts. For the ‘acarbose study’, Boerenland via was used again but the Albert Heijn via was replaced by a low-fat dairy custard (0.1 wt % fat Creamex, Creamex Corp., Rijkervoort, The Netherlands).
In both studies, the effect of amylase and acarbose on starch-based custards was compared with their effects on non-starch custards to verify amylase-starch interactions. A non-starch custard was produced using full-fat (3 wt %) commercially available milk (Campina Corp., Woerden, The Netherlands) and adding 0.85 wt % of sodium carboxy methylcellulose (or “CMC”) (Akuell AF 3295, Akzo Nobel Corp., Amersfoort, The Netherlands), 6.25 wt % of sugar and 0.33 wt % of vanilla powder. Yellow colorant (Egg yellow, Supercook, Leeds, United Kingdom) was added at 3.33 ml/l custard to match the color of the starch-based custards.
For the amylase study, a bacterial α-amylase (from Bacillus licheniformis, with 15 wt % NaCl and 25 wt % sucrose, Sigma Corp., Zwijndrecht, The Netherlands) was used to prepare amylase solutions at concentrations of 40, 160, and 640 units in 100 μl aliquots of water. This concentration range is similar to the range of individual amylase levels found across a group of young and healthy subjects (Engelen, unpublished results). The amylase concentrations, including a control of 0 units, were added to 5 ml samples of the starch-based custards. Only the highest concentration, 640 units, and the control were added to 5 ml samples of the CMC custard.
Panelists were seated in sensory booths with appropriate ventilation and lighting. Testing took place over either 3 (‘amylase study’) or 1.5 (‘acarbose study’) sessions of 2 hours. Within each session, subjects were presented with 20 trials during which they received in the amylase study each of the three custards once with the various amounts of amylase and with two different processing instructions. Over the 3 sessions, each custard was presented 3 times in each condition. In the ‘acarbose study’, each of the three custards with various amounts of acarbose were presented twice in the first session, and once in the second half session. The stimulus presentation order was randomized per subject and per session. The trials were presented at an average rate of one trial per 5 minutes. A break separated the first and the second half of each session. […]

[1] = U, AH custard, amylase 40 units
[2] = U, AH custard, amylase 160 units
[3] = U, AH custard, amylase 640 units
[4] = U, BL custard, amylase 40 units
[5] = U, BL custard, amylase 160 units
[6] = U, BL custard, amylase 640 units
[7] = U, CMC custard, amylase 640 units

B1: Amylase: bacterial α-amylase from Bacillus licheniformis, with 15 wt % NaCl and 25 wt % sucrose, Sigma Corp. (protein, UniProt P06278 30-512, looked up)
Alpha-amylase: ANLNGTLMQYFEWYMPNDGQHWKRLQNDSAYLAEHGITAVWIPPAYKGTSQADVGYGAYDLYDLGEFHQKGTVRTKYGTKGELQSAIKSLHSRDINVYGDVVINHKGGADATEDVTAVEVDPADRNRVISGEHRIKAWTHFHFPGRGSTYSDFKWHWYHFDGTDWDESRKLNRIYKFQGKAWDWEVSNENGNYDYLMYADIDYDHPDVAAEIKRWGTWYANELQLDGFRLDAVKHIKFSFLRDWVNHVREKTGKEMFTVAEYWQNDLGALENYLNKTNFNHSVFDVPLHYQFHAASTQGGGYDMRKLLNSTVVSKHPLKAVTFVDNHDTQPGQSLESTVQTWFKPLAYAFILTRESGYPQVFYGDMYGTKGDSQREIPALKHKIEPILKARKQYAYGAQHDYFDHHDIVGWTREGDSSVANSGLAALITDGPGGAKRMYVGRQNAGETWHDITGNRSEPVVINSEGWGEFHVNGGSVSIYVQR
modifications: formulated with NaCl and sucrose
fatty-af [1]: 29 | heterogeneous-mo [1]: 28 | prickling-mo [1]: 19 | rough-af [1]: 30 | smooth-mo [1]: 62 | sticky-af [1]: 31 | temperature-mo [1]: 41 | thick-mo [1]: 39 | airy-mo [2]: 27 | bitter/chem-fl [2]: 37 | creamy-af [2]: 37 | creamy-mo [2]: 39 | fatty-af [2]: 28 | heterogeneous-mo [2]: 27 | prickling-mo [2]: 19 | rough-af [2]: 27 | smooth-mo [2]: 65 | sticky-af [2]: 28 | temperature-mo [2]: 39 | thick-mo [2]: 38 | airy-mo [3]: 26 | bitter/chem-fl [3]: 47 | creamy-af [3]: 34 | creamy-mo [3]: 36 | fatty-af [3]: 28 | heterogeneous-mo [3]: 28 | prickling-mo [3]: 22 | rough-af [3]: 27 | smooth-mo [3]: 66 | sticky-af [3]: 31 | temperature-mo [3]: 40 | thick-mo [3]: 32 | airy-mo [4]: 27 | bitter/chem-fl [4]: 27 | creamy-af [4]: 37 | creamy-mo [4]: 42 | fatty-af [4]: 28 | heterogeneous-mo [4]: 27 | prickling-mo [4]: 17 | rough-af [4]: 30 | smooth-mo [4]: 65 | sticky-af [4]: 31 | temperature-mo [4]: 42 | thick-mo [4]: 37 | airy-mo [5]: 26 | bitter/chem-fl [5]: 32 | creamy-af [5]: 38 | creamy-mo [5]: 43 | fatty-af [5]: 29 | heterogeneous-mo [5]: 27 | prickling-mo [5]: 17 | rough-af [5]: 31 | smooth-mo [5]: 62 | sticky-af [5]: 32 | temperature-mo [5]: 42 | thick-mo [5]: 41 | airy-mo [6]: 27 | bitter/chem-fl [6]: 38 | creamy-af [6]: 35 | creamy-mo [6]: 39 | fatty-af [6]: 29 | heterogeneous-mo [6]: 33 | prickling-mo [6]: 20 | rough-af [6]: 31 | smooth-mo [6]: 66 | sticky-af [6]: 34 | temperature-mo [6]: 41 | thick-mo [6]: 37 | airy-mo [7]: 46 | bitter/chem-fl [7]: 52 | creamy-af [7]: 39 | creamy-mo [7]: 40 | fatty-af [7]: 41 | heterogeneous-mo [7]: 38 | melting-mo [7]: 32 | prickling-mo [7]: 24 | rough-af [7]: 21 | smooth-mo [7]: 49 | sticky-af [7]: 44 | temperature-mo [7]: 48 | thick-mo [7]: 53 | vanilla-fl [7]: 29 | effect on odor, mouthfeel or afterfeel attributes (non-starch CMC-based custard, added amylase): failed to affect any of the odor, mouthfeel or afterfeel attributes | intensity of bitter/chemical flavor, change when amylase added (non-starch CMC-based custard, p=0.01): increased | bitter/chemical flavor, change with increasing amylase concentration (starch-based custards): increased significantly | creamy mouthfeel, change with increasing amylase concentration (starch-based custards, p<0.0001): decreased | melting mouthfeel, change with increasing amylase concentration (starch-based custards, p=0.001): increased significantly | vanilla flavor, change with increasing amylase concentration (starch-based custards, p=0.001): decreased | thick mouthfeel, change with increasing amylase concentration (starch-based custards, p=0.004): decreased | heterogeneous mouthfeel, change with increasing amylase concentration (starch-based custards, p=0.006): increased significantly | fatty afterfeel, change with increasing amylase concentration (starch-based custards, p=0.05): decreased

— patent publication US20080292760A1, “Semi-Solid Food Products and Methods For Their Production, Based on Inhibiting Amylase Starch Breakdown” (WAGENINGEN CENTRE FOR FOOD SCIENCES, priority 2004, published 2008)
